Experimental data as given in paper PMC13585564 (2026).

Tests used:
Assay in all cases: ITC
[1] = target: HSL3 ectodomain pre-incubated with CTNIP4^C58A.C68A(46–70)_(linear) (Arabidopsis, C58A (stands in the printed letters) | C68A (stands in the printed letters))
[2] = target: HSL3 ectodomain pre-incubated with CTNIP4^C58A(46–63) (Arabidopsis, C58A (stands in the printed letters))
[3] = target: HSL3–CTNIP4 complex (HSL3 ectodomain pre-incubated with CTNIP4(46–70)_(Cys–Cys)) (Arabidopsis, disulfide bond linking Cys58 and Cys68)
[4] = target: HSL3 ectodomain pre-incubated with CTNIP4^N60A(46–70)_(Cys–Cys) (Arabidopsis, N60A (stands in the printed letters), disulfide bond linking Cys58 and Cys68)
[5] = target: HSL3 ectodomain pre-incubated with CTNIP4^N60F(46–70)_(Cys–Cys) (Arabidopsis, N60F (stands in the printed letters), disulfide bond linking Cys58 and Cys68)

Row | Binder | Kd [1] | Kd [2] | Kd [3] | Kd [4] | Kd [5]
1 | SERK1 ectodomain (residues 24–213) (domain or fragment) ASANLEGDALHTLRVTLVDPNNVLQSWDPTLVNPCTWFHVTCNNENSVIRVDLGNAELSGHLVPELGVLKNLQYLELYSNNITGPIPSNLGNLTNLVSLDLYLNSFSGPIPESLGKLSKLRFLRLNNNSLTGSIPMSLTNITTLQVLDLSNNRLSGSVPDNGSFSLFTPISFANNLDLCGPVTSHPCPGS | 2540 nM | 8200 nM | 458 nM |  | 
2 | SERK3 (protein) NAEGDALSALKNSLADPNKVLQSWDATLVTPCTWFHVTCNSDNSVTRVDLGNANLSGQLVMQLGQLPNLQYLELYSNNITGTIPEQLGNLTELVSLDLYLNNLSGPIPSTLGRLKKLRFLRLNNNSLSGEIPRSLTAVLTLQVLDLSNNPLTGDIPVNGSFSLFTPISFANTKLTPLPASPPPPISPTPPSPAGS |  |  | 269 nM | 2050 nM | 15100 nM
